Test system: Escherichia coli TOP10
Assay: shrunken log2 fold change of peptide-encoding DNA abundance (4.5 h post-induction vs induction); higher = less antimicrobial activity (less host growth inhibition)
Details: time post-induction: 4.5 h; library: site-saturation at positions 5, 18, 19, 20
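Also: peptides expressed intracellularly from a pBAD plasmid library in pooled LB shake-flask culture, induced with 0.3% L-arabinose, DNA abundance read by NGS, three biological replicates, DESeq2 with apeglm shrinkage.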

Sequence	shrunken log2 fold change
RRIRWRPPRLPRPRPRPPSMPRP	0.405
RRIRARPPRLPRPRPRPEKYPRP	0.101
RRIRRRPPRLPRPRPRPMDFPRP	0.195
RRIRDRPPRLPRPRPRPENLPRP	0.0863
RRIRKRPPRLPRPRPRPEMIPRP	0.0131
RRIRKRPPRLPRPRPRPIAEPRP	0.0504
RRIRNRPPRLPRPRPRPESWPRP	0.362
RRIRTRPPRLPRPRPRPCCSPRP	0.123
RRIRVRPPRLPRPRPRPKGGPRP	0.0495
RRIRTRPPRLPRPRPRPFWFPRP	0.526
RRIRCRPPRLPRPRPRPQFYPRP	-0.782
RRIRWRPPRLPRPRPRPNMWPRP	0.0493
RRIRWRPPRLPRPRPRPCDVPRP	-0.00226
RRIRLRPPRLPRPRPRPHFAPRP	-0.0165
RRIRRRPPRLPRPRPRPHIFPRP	-0.019
RRIRFRPPRLPRPRPRPPEYPRP	-0.0154
RRIRIRPPRLPRPRPRPQCFPRP	0.0204
RRIRFRPPRLPRPRPRPSWPPRP	-0.0802
RRIRSRPPRLPRPRPRPRATPRP	0.301
RRIRFRPPRLPRPRPRPRAVPRP	0.475
RRIRSRPPRLPRPRPRPRAYPRP	0.031
RRIRMRPPRLPRPRPRPMNLPRP	0.11
RRIRCRPPRLPRPRPRPNCPPRP	-0.413
RRIRWRPPRLPRPRPRPKKHPRP	0.293
RRIRVRPPRLPRPRPRPWPRPRP	0.183

Sequence	shrunken log2 fold change
RRIRQRPPRLPRPRPRPCPNPRP	-0.152
RRIRVRPPRLPRPRPRPISNPRP	-0.512
RRIRPRPPRLPRPRPRPAHGPRP	0.708
RRIRQRPPRLPRPRPRPECKPRP	-0.0182
RRIRWRPPRLPRPRPRPDVPPRP	-0.177
RRIRCRPPRLPRPRPRPTLIPRP	1.65
RRIRFRPPRLPRPRPRPKIMPRP	-0.624
RRIRPRPPRLPRPRPRPARWPRP	0.44
RRIRTRPPRLPRPRPRPHRSPRP	0.0963
RRIRCRPPRLPRPRPRPWCVPRP	-0.0995
RRIRARPPRLPRPRPRPEYCPRP	0.409
RRIRCRPPRLPRPRPRPFGHPRP	0.0616
RRIRGRPPRLPRPRPRPFQTPRP	0.013
RRIRIRPPRLPRPRPRPKHHPRP	-0.366
RRIRHRPPRLPRPRPRPVYWPRP	-0.262
RRIRMRPPRLPRPRPRPGVSPRP	0.461
RRIRCRPPRLPRPRPRPCLRPRP	-0.229
RRIRPRPPRLPRPRPRPMEEPRP	-0.0433
RRIRRRPPRLPRPRPRPCEPPRP	-0.0751
RRIRARPPRLPRPRPRPIVWPRP	0.393
RRIRKRPPRLPRPRPRPIQPPRP	-0.00952
RRIRDRPPRLPRPRPRPNSQPRP	-0.283
RRIRFRPPRLPRPRPRPDQNPRP	-0.203
RRIRLRPPRLPRPRPRPFCCPRP	-0.255
RRIRFRPPRLPRPRPRPSLVPRP	-0.167

Sequence	shrunken log2 fold change
RRIRARPPRLPRPRPRPSNCPRP	-0.285
RRIRHRPPRLPRPRPRPMIEPRP	0.0253
RRIRYRPPRLPRPRPRPSRQPRP	-0.114
RRIRLRPPRLPRPRPRPADWPRP	0.196
RRIRPRPPRLPRPRPRPSGIPRP	-0.126
RRIRDRPPRLPRPRPRPNETPRP	-0.023
RRIRSRPPRLPRPRPRPYCMPRP	-0.881
RRIRMRPPRLPRPRPRPVFRPRP	-0.0467
RRIRIRPPRLPRPRPRPYQWPRP	-0.316
RRIRLRPPRLPRPRPRPADPPRP	0.0111
RRIRCRPPRLPRPRPRPEPFPRP	0.0621
RRIRHRPPRLPRPRPRPWNKPRP	-0.111
RRIRERPPRLPRPRPRPFNIPRP	-0.0814
RRIRQRPPRLPRPRPRPLWVPRP	0.221
RRIRQRPPRLPRPRPRPVYGPRP	-0.258
RRIRCRPPRLPRPRPRPMKPPRP	0.0236
RRIRSRPPRLPRPRPRPNNGPRP	-0.035
RRIRKRPPRLPRPRPRPVTNPRP	-0.0569
RRIRCRPPRLPRPRPRPLCNPRP	-0.244
RRIRQRPPRLPRPRPRPNFMPRP	0.0789
RRIRRRPPRLPRPRPRPQNFPRP	-0.149
RRIRLRPPRLPRPRPRPMDAPRP	0.282
RRIRLRPPRLPRPRPRPKKIPRP	-0.104
RRIRRRPPRLPRPRPRPMDAPRP	0.161
RRIRCRPPRLPRPRPRPGLVPRP	0.0569
